Among the data in patent US20090053750A1 (CELL GENESYS, published 2009) are fluorescence index values, retold here.

Assay [1] concerns the target T1, class I MHC receptor HLA-A2 on T2 cells (human).
T1 construct: detected on the cell surface with a mouse anti-human HLA-A2 monoclonal antibody and goat anti-mouse IgG F(ab')2-FITC; also called HLA-A2 receptor; HLA-A2 class I MHC
The assay can be described thus: T2 cells, anti-HLA-A2 flow cytometry after brefeldin A; Average; 0 hr. Here is the method:
(§1) Following overnight incubation, the cells were washed and stained with mouse anti-human HLA-A2 monoclonal antibody for 15 min at 4° C.
(§2) After washing, the cells were incubated with goat anti-mouse IgG (F(ab′)₂)-FITC (Sigma, St. Louis, Mo.) for 15 min at 4° C. The cells were washed and analyzed on a FACSort flow cytometer with CellQuest v2.1 software (Becton-Dickson, San Jose, Calif.). […] Up-regulation of HLA-A2 expression correlates with binding of HLA-A2 by the filamin-B peptides.
(§3) To test the stability of the interaction between the peptides and HLA-A2, fluorescence was monitored for several hours following the addition of brefeldin A to the assay.
Background: Flow cytometry measures light scatter and fluorescence of single cells or particles in a stream.

The target in assay [2] is T1, class I MHC receptor HLA-A2 on T2 cells. The assay can be described thus: T2 cells, anti-HLA-A2 flow cytometry after brefeldin A; Average; 2 hr. Here is the method: as §1, §2, §3
Assay [3] has the same target. Briefly: T2 cells, anti-HLA-A2 flow cytometry after brefeldin A; Average; 4 hr. Here is the method:
as §1, §2, §3

Assay [4] shares this target. Briefly: T2 cells, anti-HLA-A2 flow cytometry after brefeldin A; Average; 6 hr. Here is the method:
as §1, §2, §3

The target is the same in assay [5]. The assay can be described thus: T2 cells, anti-HLA-A2 flow cytometry after brefeldin A; Average; 8 hr. Here is the method: as §1, §2, §3
For assay [6] the target is unchanged. The assay can be described thus: T2 cells, anti-HLA-A2 flow cytometry after brefeldin A; Assay #1; 0 hr. The protocol: as §1, §2, §3
For assay [7] the target is unchanged. Briefly: T2 cells, anti-HLA-A2 flow cytometry after brefeldin A; Assay #1; 2 hr. Here is the method:
as §1, §2, §3

Assay [8] shares this target. Briefly: T2 cells, anti-HLA-A2 flow cytometry after brefeldin A; Assay #1; 4 hr. The protocol:
as §1, §2, §3

Assay [9] has the same target. Briefly: T2 cells, anti-HLA-A2 flow cytometry after brefeldin A; Assay #1; 6 hr. Here is the method: as §1, §2, §3
The target is the same in assay [10]. The assay can be described thus: T2 cells, anti-HLA-A2 flow cytometry after brefeldin A; Assay #1; 8 hr. Here is the method: as §1, §2, §3
Assay [11] has the same target. Briefly: T2 cells, anti-HLA-A2 flow cytometry after brefeldin A; Assay #2; 0 hr. Here is the method: as §1, §2, §3
Assay [12] shares this target. Briefly: T2 cells, anti-HLA-A2 flow cytometry after brefeldin A; Assay #2; 2 hr. The protocol:
as §1, §2, §3

For assay [13] the target is unchanged. The assay can be described thus: T2 cells, anti-HLA-A2 flow cytometry after brefeldin A; Assay #2; 4 hr. The protocol:
as §1, §2, §3

Assay [14] shares this target. The assay can be described thus: T2 cells, anti-HLA-A2 flow cytometry after brefeldin A; Assay #2; 6 hr. The protocol: as §1, §2, §3
For assay [15] the target is unchanged. Briefly: T2 cells, anti-HLA-A2 flow cytometry after brefeldin A; Assay #2; 8 hr. Here is the method: as §1, §2, §3
Assay [16] has the same target. The assay can be described thus: T2 cells, anti-HLA-A2 flow cytometry after brefeldin A; Average; 18 hr. The protocol: as §1, §2, §3
The target is the same in assay [17]. The assay can be described thus: T2 cells pulsed with peptide + b2m, anti-HLA-A2 flow cytometry; Average. Here is the method: as §1, §2
Assay [18] shares this target. Briefly: T2 cells, anti-HLA-A2 flow cytometry after brefeldin A; Assay #1; 18 hr. Here is the method:
as §1, §2, §3

For assay [19] the target is unchanged. The assay can be described thus: T2 cells, anti-HLA-A2 flow cytometry after brefeldin A; Assay #2; 18 hr. The protocol: as §1, §2, §3
The target is the same in assay [20]. The assay can be described thus: T2 cells pulsed with peptide + b2m, anti-HLA-A2 flow cytometry; Assay #1. Here is the method: as §1, §2
Assay [21] shares this target. Briefly: T2 cells pulsed with peptide + b2m, anti-HLA-A2 flow cytometry; Assay #2. Here is the method:
as §1, §2

Take SLQESGLKV [Filamin B peptide #4]: the fluorescence index in assay [1] amounted to 1.79 F.I; in [2], 1.4 F.I; in assay [3], 1.28 F.I; in assay [4] it was 1.09 F.I; in assay [5] it was 1.05 F.I; in assay [6] it was 1.96 F.I. For the same molecule, the fluorescence index in [7] amounted to 1.43 F.I; in assay [8] it was 1.43 F.I; in [9], 1.18 F.I; in assay [10], 1.09 F.I; in assay [11], 1.61 F.I; in [12], 1.37 F.I. The fluorescence index turned out to be 1.13 F.I in assay [13]; 1 F.I in assay [14]; 1 F.I in assay [15]; 1.05 F.I in assay [16]; 1.79 in assay [17]; 1.1 F.I in [18]. Besides, the fluorescence index was found to be 1 F.I in assay [19], 1.96 in assay [20] and 1.61 in assay [21].
For the molecule KLILGLVWT [Filamin B peptide #7], the fluorescence index in [1] came to 1.32 F.I; in [2] it was 1.16 F.I; in assay [3], 1.16 F.I; in assay [4], 1.05 F.I; in [5], 1.05 F.I; in [6] it was 1.38 F.I. Besides, the fluorescence index in assay [7] worked out at 1.24 F.I; in assay [8], 1.22 F.I; in assay [9], 1.09 F.I; in [10] it was 1.09 F.I; in assay [11] it was 1.25 F.I; in assay [12] it was 1.07 F.I. In addition, the fluorescence index was 1.1 F.I in assay [13]; 1 F.I in [14]; 1 F.I in assay [15]; 1.13 F.I in assay [16]; 1.32 in [17]; 1.25 F.I in assay [18]. The values for the fluorescence index in assay [19], in assay [20] and in assay [21] were 1 F.I, 1.38 and 1.25, respectively.
On to GLAPLEVRV [Filamin B peptide #3], for which the fluorescence index in assay [1] was found to be 3.93 F.I; in assay [2] it was 3.82 F.I; in assay [3], 3.79 F.I; in [4], 3.61 F.I; in assay [5], 3.45 F.I; in assay [6], 4.21 F.I. In addition, the fluorescence index in [7] stood at 4.3 F.I; in assay [8] it was 4.22 F.I; in assay [9], 4.27 F.I; in assay [10] it was 4.01 F.I; in assay [11], 3.64 F.I; in [12], 3.33 F.I. In addition, the fluorescence index in assay [13] came to 3.35 F.I; in assay [14] it was 2.94 F.I; in [15], 2.89 F.I; in assay [16] it was 2.6 F.I; in assay [17], 3.93; in assay [18], 3.1 F.I. Moreover, the fluorescence index in assay [19] amounted to 2.1 F.I; in assay [20] it was 4.21; in assay [21], 3.64.
In the case of LILGLVWTL [Filamin B peptide #1], the fluorescence index in [1] was determined as 2.82 F.I; in [2], 2.67 F.I; in assay [3] it was 2.67 F.I; in assay [4], 2.58 F.I; in assay [5], 2.4 F.I; in [6] it was 3.46 F.I. Further, the fluorescence index is 3.17 F.I in [7]; 3.17 F.I in [8]; 3.32 F.I in [9]; 3.22 F.I in assay [10]; 2.17 F.I in assay [11]; 2.17 F.I in assay [12]. The fluorescence index in assay [13] stood at 2.16 F.I; in [14], 1.83 F.I; in assay [15], 1.57 F.I; in [16], 1.9 F.I; in assay [17], 2.82; in assay [18], 2.45 F.I. Besides, the fluorescence index in [19] stood at 1.35 F.I; in assay [20] it was 3.46; in assay [21], 2.17.
For the molecule GQGDVMVFV [Filamin B peptide #6], the fluorescence index in [1] was 2.32 F.I; in assay [2], 1.67 F.I; in [3], 1.47 F.I; in assay [4], 1.12 F.I; in assay [5], 1.05 F.I; in assay [6], 2.67 F.I. In addition, the fluorescence index stood at 1.74 F.I in assay [7]; 1.65 F.I in assay [8]; 1.23 F.I in assay [9]; 1.09 F.I in assay [10]; 1.96 F.I in [11]; 1.6 F.I in [12]. The fluorescence index in assay [13] turned out to be 1.29 F.I; in assay [14] it was 1 F.I; in assay [15] it was 1 F.I; in assay [16], 1.05 F.I; in assay [17], 2.32; in [18] it was 1.1 F.I. Further, the values for the fluorescence index in assay [19], in assay [20] and in assay [21] were 1 F.I, 2.67 and 1.96, respectively.
